The text below walks through data of patent US20030026781A1, “Compositions and methods for regulating endogenous inhibitor of ATP synthase, including treatment for diabetes” (MitoKor, priority 1999, published 2003).

The target in the experiment is mitochondrial ATP synthase (ETC Complex V) ATPase in rat liver submitochondrial particles (SMP) (rat) (UniProt P15999). Nature of the experiment: cell-based or functional assay.

A word on the IC50: it is the concentration needed to halve the response being measured. For the substance rat IF1 (from UniProt Q03344 26-107), the IC50 at pH 6.5, inhibition of oligomycin-sensitive ATPase in rat liver SMP came out at 190 nM; the IC50 at pH 7.25, inhibition of oligomycin-sensitive ATPase in rat liver SMP came out at 420 nM; the half-inhibitory concentration (IC50) at pH 8, inhibition of oligomycin-sensitive ATPase in rat liver SMP was more than 800 nM.
